Test results taken from the Human Domainome abundance scans (Beltran et al. 2025).
± gives the uncertainty stated by the source.

B1: Apoptosis-associated speck-like protein containing a CARD, residues 114 to 194; numbered along this chain, Q9ULZ3 (parent)
chain: FIDQHRAALIARVTNVEWLLDALYGKVLTDEQYQAVRAEPTNPSKMRKLFSFTPAWNWTCKDLLLQALRESQSYLVEDLER

Variants of: B1
Assay: abundance fitness (aPCA) (normalised: wild type 0, dead -1); higher = more abundant; growth selection in yeast, the domain comes from the species named
Details: Homo sapiens

Abundance fitness: each site, then its substitutions
A11: E -0.115 ± 0.41, R -0.038 ± 0.45
L9: V -0.989 ± 0.13, P -0.694 ± 0.14, N -0.776 ± 0.35, S -0.938 ± 0.15, I -0.429 ± 0.12, E -0.76 ± 0.17, H -0.749 ± 0.18, K -0.948 ± 0.25, M -0.563 ± 0.14, G -0.624 ± 0.067, Q -1.03 ± 0.27, Y -0.644 ± 0.28, C -0.558 ± 0.075, D -0.798 ± 0.25, W -0.811 ± 0.11, A -0.901 ± 0.12, R -0.925 ± 0.13, F -0.763 ± 0.2
Q4: W -0.802 ± 0.15, G -0.685 ± 0.081, L -0.352 ± 0.059, N -0.103 ± 0.12, K -0.111 ± 0.074, H -0.315 ± 0.14, V -0.165 ± 0.063, T 0.117 ± 0.07, M -0.161 ± 0.079, R -0.19 ± 0.043, P -1.03 ± 0.18, I -0.015 ± 0.12
A22: P -1 ± 0.2, T -0.146 ± 0.073, N -0.08 ± 0.16, K 0.331 ± 0.081, H -0.116 ± 0.22, L -0.135 ± 0.057, W -0.183 ± 0.06, V -0.476 ± 0.074, D -0.302 ± 0.21, I 0.126 ± 0.28, R 0.094 ± 0.04, M -0.183 ± 0.069, S -0.057 ± 0.07, C -0.127 ± 0.092, G -0.4 ± 0.056, Y -0.004 ± 0.13, Q 0.063 ± 0.062
R6: S -0.385 ± 0.048, D -0.724 ± 0.19, E -0.141 ± 0.084, F -0.538 ± 0.15, M -0.107 ± 0.082, V -0.416 ± 0.07, P -0.685 ± 0.13, A -0.074 ± 0.059, C -0.752 ± 0.17, L -0.362 ± 0.061, H -0.635 ± 0.23, T -0.549 ± 0.13, Q -0.285 ± 0.13, N -0.397 ± 0.16, Y -0.327 ± 0.14, G -0.501 ± 0.057, I -0.389 ± 0.14, K 0.014 ± 0.1
I10: Y -0.54 ± 0.2, F -0.84 ± 0.17, T -0.515 ± 0.092, Q -0.655 ± 0.15, D -0.658 ± 0.15, S -0.977 ± 0.15, C -0.628 ± 0.16, N -0.745 ± 0.29, A -0.714 ± 0.097, E -0.594 ± 0.066, H -0.769 ± 0.27, M -0.489 ± 0.11, R -0.631 ± 0.064, P -0.985 ± 0.25, W -0.793 ± 0.11, G -0.74 ± 0.076
E17: Y -0.61 ± 0.17, R -0.642 ± 0.07, W -0.642 ± 0.12, F -0.97 ± 0.5, P -0.705 ± 0.084, N -0.286 ± 0.17, G -0.357 ± 0.044, M -0.49 ± 0.061, L -0.859 ± 0.12, S -0.536 ± 0.06, C -0.867 ± 0.21, T -0.267 ± 0.066, A -0.619 ± 0.067, H -0.695 ± 0.17, Q -0.083 ± 0.076, V -0.985 ± 0.12, D 0.019 ± 0.1
Y24: G -0.483 ± 0.062, M -0.501 ± 0.065, P -0.598 ± 0.062, F -0.594 ± 0.11, A -0.254 ± 0.056, L -0.035 ± 0.047, K 0.255 ± 0.061, H 0.067 ± 0.077, Q -0.217 ± 0.1, N -0.078 ± 0.12, I -0.395 ± 0.12, D -0.157 ± 0.14
L20: R -0.917 ± 0.095, D -0.518 ± 0.12, Y -0.626 ± 0.39, F -0.621 ± 0.23, N -0.797 ± 0.33, S -0.583 ± 0.077, V -0.388 ± 0.051, Q -0.854 ± 0.2, C 0.005 ± 0.08, G -0.901 ± 0.093, P -0.543 ± 0.11, I -0.179 ± 0.094, M -0.458 ± 0.093, E -0.723 ± 0.13
W18: M 0 ± 0.077, Q 0.174 ± 0.06, A 0.248 ± 0.046, V 0.107 ± 0.048, E 0.103 ± 0.083, K 0.186 ± 0.089, Y 0.186 ± 0.093, C 0.029 ± 0.069, P 0.174 ± 0.047, S 0.163 ± 0.045, L 0.043 ± 0.048, T 0.053 ± 0.066, D 0.18 ± 0.097, I 0.061 ± 0.12, F 0.213 ± 0.091, G 0.169 ± 0.047, R 0.076 ± 0.04
V16: G -0.88 ± 0.087, P -0.35 ± 0.068, S -0.846 ± 0.1, D -0.773 ± 0.11, C -0.342 ± 0.16, E -0.928 ± 0.17, I -0.464 ± 0.12, A -0.794 ± 0.1, F -0.941 ± 0.26, W -0.533 ± 0.084, Q -0.865 ± 0.15, L -0.484 ± 0.078, R -0.573 ± 0.057, Y -1.02 ± 0.42, H -0.821 ± 0.22, T -0.572 ± 0.095
R12: D -0.666 ± 0.26, F -0.655 ± 0.21, S -0.462 ± 0.085, Q -0.152 ± 0.091, Y -0.484 ± 0.13, T -0.746 ± 0.13, M -0.628 ± 0.11, N -0.14 ± 0.16, G -0.17 ± 0.034, I -0.803 ± 0.38, W -1.18 ± 0.29, P -0.964 ± 0.18, H -0.219 ± 0.12, K -0.228 ± 0.095, C -0.361 ± 0.15, L -0.948 ± 0.13, E -0.316 ± 0.07, A -0.707 ± 0.092
H5: A -0.276 ± 0.08, E -0.441 ± 0.11, R -0.743 ± 0.062, F -0.553 ± 0.12, G -0.833 ± 0.082, M -0.145 ± 0.075, N -0.157 ± 0.12, K -0.605 ± 0.19, P -0.741 ± 0.13, I -0.057 ± 0.13, D -0.751 ± 0.24, L -0.071 ± 0.042, W -0.381 ± 0.071, Q -0.341 ± 0.11, Y -0.316 ± 0.11, V -0.147 ± 0.057, S -0.657 ± 0.09, T -0.602 ± 0.086
A8: E 0.2 ± 0.072, G -0.577 ± 0.059, C -0.312 ± 0.097, L -0.79 ± 0.13, T -0.239 ± 0.069, Q -0.078 ± 0.063, S -0.112 ± 0.052, M -0.372 ± 0.12, V -0.424 ± 0.11, P -0.945 ± 0.16, Y -0.193 ± 0.12, W -0.776 ± 0.11, N -0.558 ± 0.39, H -0.375 ± 0.11, I -0.225 ± 0.2, K -0.521 ± 0.13, F -0.673 ± 0.18
T14: S -0.045 ± 0.052, H -0.644 ± 0.22, I -0.541 ± 0.17, C -0.656 ± 0.18, K -0.295 ± 0.17, Q -0.252 ± 0.12, R -0.209 ± 0.053, F -0.749 ± 0.17, A -0.4 ± 0.067, Y -0.54 ± 0.17, W -0.864 ± 0.16, E -0.004 ± 0.078, P -0.815 ± 0.13, L -0.571 ± 0.09, G -0.265 ± 0.058, D -0.058 ± 0.098, N -0.206 ± 0.15, M -0.607 ± 0.19
V13: A -0.039 ± 0.061, N -0.861 ± 0.25, P -0.396 ± 0.12, E -0.538 ± 0.11, F -0.495 ± 0.15, M -0.611 ± 0.11, K -0.899 ± 0.2, H -0.878 ± 0.26, W -0.893 ± 0.12, G -0.598 ± 0.042, D -0.688 ± 0.14, Q -0.775 ± 0.14, C 0.023 ± 0.068, S -0.535 ± 0.067, R -0.851 ± 0.085, L -0.632 ± 0.076, Y -0.729 ± 0.24
L19: N -0.704 ± 0.46, K -0.922 ± 0.36, Y 0.243 ± 0.21, T -0.912 ± 0.17, D -0.395 ± 0.097, I -0.122 ± 0.12, P -0.787 ± 0.12, E -0.882 ± 0.23, W -0.643 ± 0.11, S -0.853 ± 0.11, R -0.906 ± 0.12, Q -0.439 ± 0.13, G -0.827 ± 0.081, M -0.787 ± 0.12, A -0.319 ± 0.062, F -0.781 ± 0.2, V -0.051 ± 0.05
L23: H -0.698 ± 0.34, N -1.06 ± 0.38, G -0.911 ± 0.09, R -0.83 ± 0.088, C -0.444 ± 0.14, I -0.564 ± 0.29, V -0.611 ± 0.074, Y -0.586 ± 0.31, M -0.392 ± 0.085, D -0.962 ± 0.22, W -0.939 ± 0.21, S -0.879 ± 0.13, K -0.645 ± 0.15, A -0.753 ± 0.075, F -0.737 ± 0.24, E -0.719 ± 0.14, Q -0.739 ± 0.24, T -0.943 ± 0.16
N15: L -0.796 ± 0.15, I -0.857 ± 0.25, W -0.605 ± 0.17, M -0.847 ± 0.17, F -0.997 ± 0.3, A -0.718 ± 0.077, P -0.806 ± 0.14, T -0.518 ± 0.099, Y -0.555 ± 0.2, D -0.142 ± 0.068, C -0.718 ± 0.14, R -0.359 ± 0.06, V -0.947 ± 0.14, E -0.188 ± 0.064, H -0.291 ± 0.11, G -0.604 ± 0.058, K -0.041 ± 0.09
A7: G -0.152 ± 0.044, S -0.014 ± 0.054, R -0.119 ± 0.045, C -0.2 ± 0.05, N 0.002 ± 0.13, I -0.638 ± 0.3, L -0.461 ± 0.068, M -0.251 ± 0.078, Y -0.54 ± 0.36, Q 0.045 ± 0.084, T -0.277 ± 0.11, V -0.249 ± 0.058, K -0.035 ± 0.1, P -0.437 ± 0.09, F -0.652 ± 0.16, E 0.295 ± 0.069, H -0.149 ± 0.11, D 0.065 ± 0.1
D21: T -0.313 ± 0.07, L -0.695 ± 0.091, G -0.331 ± 0.047, K -0.287 ± 0.11, Q -0.115 ± 0.082, A -0.477 ± 0.052, H -0.162 ± 0.073, C -0.466 ± 0.13, N -0.264 ± 0.086, I -0.69 ± 0.24, P -0.987 ± 0.19, W -0.496 ± 0.084, M -0.292 ± 0.092, R -0.33 ± 0.04, Y -0.805 ± 0.11, E -0.091 ± 0.069, F -0.801 ± 0.31
